Test results taken from article PMC9367177 (iScience, 2022).
Residue numbers refer to the chain shown, from its start.

B1: eCC6.33.5 (antibody, V domains shown)
VH: QVQLVQSGAEVKKPGSSVKVSCKAVGGTFSSSAIYWVRQAPGQGLEWMGGIIPILDIANYAQKFQGRVTITADKSTSTAFMELSSLRSEDTAVYYCALRNQWDLVVYWGQGTLVTVSS
VL: EIVLTQSPGTLSLSPGERATLSCHASQSVSSSYLAWYQQKPGQAPRLLIYGAESRATGIPDRFSGSGSGTDFTLTISRLEPEDFAVYYCQHYGSSTWTFGQGTKLEIK
notes: copies: 2 + 2
B2: eCC6.33.6 (antibody, V domains shown)
VH: B1 VH with V25P, Y35S, A58T, N59T, V105L, V106I
VL: B1 VL with H24R, S32H, E53S, A56Y, T96H
notes: copies: 2 + 2
B3: eCC6.33.9 (antibody, V domains shown)
VH: B1 VH with A24S, V25S, I34Y, Y35S, G50T, A58T, L98Q, V105I
VL: B1 VL with H24R, S28W, L34I, T96S
notes: copies: 2 + 2
B4: eCC6.30.9 (antibody, V domains shown)
VH: QVQLVQSGAEVKKPGSSVKVSCKASGGIFSIYAITWVRQAPGQGLEWMGAIIPIIGTANYAQKFQGRVTITADKSTSTAYMELSSLRSEDTAVYYCARDFRYCSSTRCYFNFDPWGQGTLVTVSS
VL: DIQMTQSPSSLSASVGDRVTITCRASQSISNYLNWYQQEAGKAPKLLIYTASSLQSGVPSRFSGSGSGTDFTLTISSLQPEDFATYYCQQSYSTPRTFGQGTKVDIK
notes: copies: 2 + 2

Molecular target: T1, SARS-CoV-2 RBD (Wuhan-1) (SARS-CoV-2, Wuhan-1, UniProt P0DTC2)
T1 construct: source: Expi293, transfected, purified (Ni-NTA, SEC)
Assay: SPR
Conditions: both partners purified

B1 and B2 are within 1.5-fold of each other in Kd: 17.3 nM for the first, 13.3 nM for the second.

First: B3
Second: B4
The Kd of the first is 180-fold higher: 14.3 nM for the first, 0.0788 nM for the second. The second binds more tightly here.

Going from B1 to B2, the koff falls from 0.00411 s⁻¹ to 0.00167 s⁻¹ (2.5-fold).

First: B3
Second: B4
The koff of the first is 11-fold higher: 0.00218 s⁻¹ for the first, 0.000202 s⁻¹ for the second.

First: B1
Second: B2
The kon of the first is 1.9-fold higher: 237000 M⁻¹ s⁻¹ for the first, 126000 M⁻¹ s⁻¹ for the second.

First: B3
Second: B4
The kon of the first is 17-fold lower: 153000 M⁻¹ s⁻¹ for the first, 2.57e+06 M⁻¹ s⁻¹ for the second.
